B1: mAb 265 (antibody, V domains shown)
VH: EVQLLESGGGLVQPGGSLRLSCAASGFTFRSSSMTWVRQAPGKGLEWVSGIRGSGGRTYDAESVKGRFTISRDNSKNTLYLQMNSLRAEDTAEYFCAKLYDYYNDYMDVWGKGTTVTVSS
VL: SYELTQPLSVSVALGQTARITCGGNNIGSKNVHWYQQKPGQAPVLVIYRDSNRPSGIPERFSGSNSGNTATLTISRAQAGDEADYYCQVWDSSTAVFGGGTQLTAL
notes: VH/VL only
B2: mAb 249 (antibody, V domains shown)
VH: QEQLVESGGGVVQPGRSLRLSCAASGFTFRSYGMHWVRQAPGKGLEWVAIIWYDGKNKYYADSVKGRFTISRDNSKNTLYLQMNSLRAEDTAVYYCARGLGYNWFDPWGQGTLVTVSS
VL: EIVLTQSPDFQSVTPKEKVTITCRASQSIGSSLHWYQQKPDQSPKLLIKYASQSFSGVPSRFSGSGSGTDFTLTINSLEAEDAATYYCHQSSSLPYTFGQGTKLEIK
notes: VH/VL only
B3: mAb 235 (antibody, V domains shown)
VH: QGKLVESGGGVVQPGRSLRLSCVASGFTFSGYGMHWVRQAPNKGLEWVAIIYYDGKNKYYADSVKGRFTVSRDNSKNTLYLQLNNLRAEDTAVYYCVRGPGYNWFDPWGQGTLVTVSS
VL: EIVLTQSPDFQSVTPKEKVTITCRASQNIGSSLHWYQQKPDQSPKLFIKHASQSFSGVPSRFSGSGSGTDFTLTINSLEAEDAATYYCHQSSSLPYTFGQGTKLEIK
notes: VH/VL only
B4: mAb 242 (antibody, V domains shown)
VH: QGKLVESGGGVVQPGRSLRLSCVASGFTFSGYGMHWVRQVPNKGLEWVAIIYYDGKNKYYADSVKGRFTISRDNSKNMLYLQMNSLRVEDTAVYYCVRGPGYNWFDPWGQGTLVTVSS
VL: EIVLTQSPDFQSVTPKEKVTITCRASQNIGSSLHWYQQKPDQSPKLLIKLTSQSFSGVPSRFSGSGSGTDFTLTINSLEAEDAATYYCHQSSSLPYTFGQGTKLEIK
notes: VH/VL only
B5: mAb 236 (antibody, V domains shown)
VH: QVKLVESGGGVVQPGRSLRLSCVASGFTFSGYGMHWVRQAPGKGLEWVAIIYYDGKNKYYADSAKGRFTVSRDNSKNTLYLQLNSLRAEDTAVYYCVRGPGYNWFDSWGQGTLVTVSS
VL: EIVLTQSPDFQSVTPKEKVTITCRASQSIGSNLHWYQQKPDQSPKLLIKYTSQSFSGVPSRFSGSGSGTDFTLTINSLEAEDAATYYCHQSSSLPYTFGQGTKLEIK
notes: VH/VL only
B6: mAb 245 (antibody, V domains shown)
VH: QVKLVESGGGVVQPGRSLRLSCVASGFTFSGYGMHWVRQAPGKGLEWVAIIYYDGKNKYYVDSVKGRFTISRDNSKNTLYLQLNSLRAEDTAVYYCVRGPGYNWFDLWGQGTLVTVAS
VL: EIVLTQSPDFQSVTPKEKVTITCRASQSIGSSLHWYQQKPDQSPKLLIKYASQSFSGVPSRFSGSGSGTDFTLTINSLEAEDAATYYCHQSSSLPYTFGQGTKLEIK
notes: VH/VL only
B7: mAb 233 (antibody, V domains shown)
VH: QGKLVESGGGVVQPGRSLRLSCVASGFTFSGYGMHWVRQVPNKGLEWVAIIYYDGKNKYYADSVKGRFTISRDNSKNMLYLQMNSLRAEDTAVYYCVRGPGYNWFDPWGQGTLVTVSS
VL: EIVLTQSPDFQSVTPKEKVTITCRASQNIGSSLHWYQQKPDQSPKLLIKLTSQSFSGVPSRFSGSGSGTDFTLTINSLEAEDAATYYCHQSSSLPYTFGQGTKLEIK
notes: VH/VL only
B8: mAb 243 (antibody, V domains shown)
VH: QGKLVESGGGVVQPGRSLRLSCVASGFTFSGYGMHWVRQAPNKGLEWVAIIYYDGKNKYYADSVKGRFTISRDNSKNMLYLQMNSLRVEDTAVYYCVRGPGYNWFDPWGQGTLVTVSS
VL: EIVLTQSPDFQSVTPKEKVTITCRASQNIGSSLHWYQQKPDQSPKLLIKHTSQSFSGVPSRFSGSGSGTAFTLTINSLEAEDAATYYCHQSSSLPYTFGQGTKLEIK
notes: VH/VL only

Target: T1, cynomolgus monkey CD3 expressed on cyno primary T cells (cynomolgus monkey, UniProt Q95LI5 22-198; Q95LI8 22-171; Q95LI7 23-181)
T1 construct: whole, on cells; CD3 complex on purified cynomolgus monkey CD3 pan T cells; also called cyno CD3
Assay: flow cytometry, cyno primary T cells
Experimental: Purified antibodies were confirmed to bind CD3 expressed on cells using the CytoFLEX S or LX flow cytometers (Beckman Coulter). Antibodies were diluted to 25 nM in FACS buffer (PBS+2% FBS) and were incubated with CD3-expressing cells for 30 minutes at 4° C. […] The median fluorescence intensity of the binding signal for each antibody was normalized to the isotype control to obtain a fold over isotype value. An antibody with a fold over isotype (FOI) of ≥10 was considered to be positive for binding.

T1 sequence (Q95LI5 22-198, chain 1 of 3): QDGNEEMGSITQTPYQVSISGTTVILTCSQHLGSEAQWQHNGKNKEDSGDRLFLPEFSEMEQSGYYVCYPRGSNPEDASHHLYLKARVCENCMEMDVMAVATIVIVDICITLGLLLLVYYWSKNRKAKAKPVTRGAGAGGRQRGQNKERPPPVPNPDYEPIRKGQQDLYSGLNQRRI
T1 sequence (Q95LI8 22-171, chain 2 of 3): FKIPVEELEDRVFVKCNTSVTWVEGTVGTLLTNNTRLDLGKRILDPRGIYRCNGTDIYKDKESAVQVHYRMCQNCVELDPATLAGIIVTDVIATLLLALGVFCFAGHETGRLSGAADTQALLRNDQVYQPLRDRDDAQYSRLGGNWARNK
T1 sequence (Q95LI7 23-181, chain 3 of 3): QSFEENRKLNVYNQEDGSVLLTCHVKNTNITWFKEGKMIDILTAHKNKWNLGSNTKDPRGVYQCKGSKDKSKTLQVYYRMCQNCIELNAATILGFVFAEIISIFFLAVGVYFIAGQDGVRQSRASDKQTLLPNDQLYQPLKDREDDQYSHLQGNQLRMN

| Binder | binding result |
| --- | --- |
| B1 | no binding (tested: FOI <10 (FOI >=10 = positive); 25 nM) |
| B2 | no binding (tested: FOI <10 (FOI >=10 = positive); 25 nM) |
| B3 | no binding (tested: FOI <10 (FOI >=10 = positive); 25 nM) |
| B4 | no binding (tested: FOI <10 (FOI >=10 = positive); 25 nM) |
| B5 | no binding (tested: FOI <10 (FOI >=10 = positive); 25 nM) |
| B6 | no binding (tested: FOI <10 (FOI >=10 = positive); 25 nM) |
| B7 | no binding (tested: FOI <10 (FOI >=10 = positive); 25 nM) |
| B8 | no binding (tested: FOI <10 (FOI >=10 = positive); 25 nM) |
